The Immune Epitope Database (IEDB)

How the values were obtained:
[1] = target: HLA-A*26:01; assay: IEDB peptide-MHC binding, purified MHC/competitive/fluorescence; filed as Kd, often an IC50 or EC50 that approximates it; ≥ and ≤ were set here for values at or beyond the usual limits of such assays; conditions: source organism: Zaire ebolavirus
[2] = target: HLA-B*39:01; assay: as above; conditions: source organism: Zaire ebolavirus
[3] = target: HLA-B*15:17; assay: as above; conditions: source organism: Zaire ebolavirus
[4] = target: HLA-B*57:01; assay: as above; conditions: source organism: Zaire ebolavirus
[5] = target: HLA-B*46:01; assay: as above; conditions: source organism: Zaire ebolavirus
[6] = target: HLA-B*15:01; assay: as above; conditions: source organism: Zaire ebolavirus
[7] = target: HLA-B*18:01; assay: as above; conditions: source organism: Zaire ebolavirus
[8] = target: HLA-A*69:01; assay: as above; conditions: source organism: Zaire ebolavirus
[9] = target: HLA-B*27:03; assay: as above; conditions: source organism: Zaire ebolavirus
[10] = target: HLA-B*51:01; assay: as above; conditions: source organism: Zaire ebolavirus
[11] = target: HLA-A*29:02; assay: IEDB peptide-MHC binding, purified MHC/direct/fluorescence; filed as Kd, often an IC50 or EC50 that approximates it; ≥ and ≤ were set here for values at or beyond the usual limits of such assays; conditions: source organism: Zaire ebolavirus
[12] = target: HLA-A*24:03; assay: as above; conditions: source organism: Zaire ebolavirus
[13] = target: HLA-A*03:01; assay: as above; conditions: source organism: Zaire ebolavirus
[14] = target: HLA-A*02:01; assay: as above
[15] = target: HLA-B*57:01; assay: IEDB peptide-MHC binding, purified MHC/competitive/radioactivity; filed as Kd, often an IC50 or EC50 that approximates it; ≥ and ≤ were set here for values at or beyond the usual limits of such assays
[16] = target: HLA-B*58:01; assay: as above
[17] = target: HLA-A*02:06; assay: as above
[18] = target: HLA-A*02:17; assay: as above
[19] = target: HLA-A*02:01; assay: as above
[20] = target: HLA-A*23:01; assay: as above; conditions: source organism: Dengue virus 1 Brazil/97-11/1997
[21] = target: HLA-B*35:01; assay: as above; conditions: source organism: Dengue virus 1 Brazil/97-11/1997
[22] = target: HLA-B*15:01; assay: as above; conditions: source organism: Dengue virus 1 Brazil/97-11/1997
[23] = target: HLA-A*24:02; assay: as above
[24] = target: HLA-A*02:12; assay: IEDB peptide-MHC binding, purified MHC/direct/fluorescence; filed as Kd, often an IC50 or EC50 that approximates it; ≥ and ≤ were set here for values at or beyond the usual limits of such assays; conditions: source organism: Zaire ebolavirus
[25] = target: HLA-A*01:01; assay: as above; conditions: source organism: Reston ebolavirus - Reston
[26] = target: HLA-A*32:01; assay: IEDB peptide-MHC binding, purified MHC/competitive/radioactivity; filed as Kd, often an IC50 or EC50 that approximates it; ≥ and ≤ were set here for values at or beyond the usual limits of such assays; conditions: source organism: Dengue virus 3 Martinique/1243/1999
[27] = target: HLA-B*15:01; assay: IEDB peptide-MHC binding, purified MHC/competitive/fluorescence; ≥ and ≤ were set here for values at or beyond the usual limits of such assays; conditions: source organism: Vaccinia virus
[28] = target: HLA-A*02:01; assay: as above; conditions: source organism: Vaccinia virus
[29] = target: HLA-B*53:01; assay: IEDB peptide-MHC binding, purified MHC/competitive/radioactivity; filed as Kd, often an IC50 or EC50 that approximates it; ≥ and ≤ were set here for values at or beyond the usual limits of such assays; conditions: source organism: Dengue virus 4 Philippines/H241/1956
[30] = source organism: Dengue virus 2 Jamaica/1409/1983
[31] = source organism: Dengue virus 1 Brazil/97-11/1997
[32] = source organism: Dengue virus 4 Philippines/H241/1956
[33] = source organism: Dengue virus 3 China/80-2/1980
[34] = source organism: Dengue virus 1 Singapore/S275/1990
[35] = source organism: Dengue virus 3 Martinique/1243/1999

Question: What does the source list for VLSDLCNFL?
Answer: Kd [1]: ≥ 20000 nM; Kd [2]: ≥ 20000 nM; Kd [3]: ≥ 20000 nM; Kd [4]: ≥ 20000 nM; Kd [5]: ≥ 20000 nM; Kd [6]: ≥ 20000 nM; Kd [7]: ≥ 20000 nM; Kd [8]: ≥ 20000 nM; Kd [9]: ≥ 20000 nM; Kd [10]: ≥ 20000 nM; Kd [11]: ≥ 20000 nM; Kd [12]: ≥ 20000 nM; Kd [13]: ≥ 20000 nM; Kd ([14]; source organism: Ebola virus - Gabon (1994-1997)): 5 nM

Question: TSSQQKADW was tested. Which Kd [15, 30] did it give?
Answer: 29.1 nM

Question: What about the Kd [16, 30] of the same sequence?
Answer: 186 nM

Question: How did the Kd [17, 30] turn out when IILEFFLIVL was run?
Answer: 325 nM

Question: What about the Kd [18, 30] of the same sequence?
Answer: 802 nM

Question: And the Kd [19, 30]?
Answer: 109 nM

Question: With IILEFFLMVL as the sequence, how does the Kd [17, 31] read?
Answer: 329 nM

Question: And the Kd [18, 32]?
Answer: 1400 nM

Question: And the Kd [19, 32]?
Answer: 95.5 nM

Question: QLANAIFKL was tested. Which Kd [18, 33] did it give?
Answer: 24.4 nM

Question: What about the Kd [19, 33] of the same sequence?
Answer: 4.09 nM

Question: Which Kd [20] does the source give for MLMTGTLAVF here?
Answer: 55 nM

Question: And the Kd [18, 34]?
Answer: 32.3 nM

Question: What about the Kd [21] of the same sequence?
Answer: 342 nM

Question: What about the Kd [22] of the same sequence?
Answer: 1.24 nM

Question: And the Kd [23, 31]?
Answer: 296 nM

Question: What about the Kd [19, 34] of the same sequence?
Answer: 75.1 nM

Question: How did the Kd [1] turn out when MVAKYDLLV was run?
Answer: ≥ 20000 nM

Question: And the Kd [2]?
Answer: ≥ 20000 nM

Question: And the Kd [4]?
Answer: ≥ 20000 nM

Question: And the Kd [5]?
Answer: ≥ 20000 nM

Question: What about the Kd [7] of the same sequence?
Answer: ≥ 20000 nM

Question: What about the Kd [9] of the same sequence?
Answer: ≥ 20000 nM

Question: And the Kd [10]?
Answer: ≥ 20000 nM

Question: And the Kd [24]?
Answer: ≥ 20000 nM

Question: And the Kd [25]?
Answer: ≥ 20000 nM

Question: What about the Kd [13] of the same sequence?
Answer: ≥ 20000 nM

Question: And the Kd ([14]; source organism: Reston ebolavirus - Reston)?
Answer: 14.1 nM

Question: With ATGPITTLW as the sequence, how does the Kd [26] read?
Answer: 221 nM

Question: And the Kd [15, 35]?
Answer: 12.1 nM

Question: And the Kd [16, 35]?
Answer: 4.89 nM

Question: What does the source list for PMMIQTRAA?
Answer: IC50 [27]: ≥ 298000 nM; IC50 [28]: 18200 nM

Question: VTMTLWYMW was tested. Which Kd [15, 32] did it give?
Answer: 7.52 nM

Question: What about the Kd [16, 32] of the same sequence?
Answer: 1.59 nM

Question: And the Kd [29]?
Answer: 2540 nM

Question: And the Kd [23, 32]?
Answer: 31.7 nM

Question: Which Kd [15, 30] does the source give for GSSIGQMFET here?
Answer: 1080 nM

Question: What about the Kd [16, 30] of the same sequence?
Answer: 1510 nM
